The chains are these.
B1: LINE1-full (parent)
chain: UACGUAGGUGGUUUUCCCCUGAUAGUGCUAAGGGGGCCUGGAAGUUUGGACUGGGCAGAGCUCAACACAGCGUGGCAAAGUGGCUGUGGCUAGACUGCCUCUCUGGAUUCCUCGUCACUCAGCAGGGCAUCUCUGAGAGAAAUGCC

Variants of B1 are the subject of this series. Nature of the series: self-cleavage, relative activity (ratio to wild type); higher = more cleavage; in vitro, sequencing; the parent is a self-cleaving ribozyme.
Consider G83A U115C, for which the self-cleavage was 1.47.

In the case of U87G U115C, the self-cleavage worked out at 0.03.

As for G88A A129G, the self-cleavage turned out to be 0.07.

On to U85C A141G, for which the self-cleavage came out at 0.16.

C90G U109C: the self-cleavage was 0.07.

For U87C A142U, the self-cleavage was 0.09. As to U87C A142C, the self-cleavage came out at 0.24. Then G89A U108C, with 0.04; and U85C G105A, with 0.12; and U85A C98U, with 0.09. The value for U85A C98A was 0.07.

On to U85A C98G, for which the self-cleavage was determined as 0.28. The value for U85C A121U was 0.25.

As to U85C A121G, the self-cleavage came out at 0.25.

For the variant U85C A124G, the self-cleavage amounted to 0.13.

On to U85C A124U, for which the self-cleavage turned out to be 0.21. Then G86A U100C, with 0.1; and U85G A138G, with 0.22; and U87A A107U, with 0.09.

Turning to U87A A107G, the self-cleavage is 0.1. G88A A140G: the self-cleavage worked out at 0.08. The value for U87C A124G was 0.11. The value for U87C A124U was 0.33; that for G89A U112A was 0.05; that for G83A U108C was 0.56.

As to U87A A140G, the self-cleavage amounted to 0.07. As for G82A U132C, the self-cleavage was determined as 2.22. Then U85A A94U, with 0.07; and G88A G97A, with 0.04; and U85G G106A, with 0.29. Then U85C C98U, with 0.01; and G88U A142G, with 0. The value for G82U A92U was 0.43; that for C90G A92G was 0.03. For U87A A124G, the self-cleavage turned out to be 0.07.

With U87A A136U, the self-cleavage came to 0.1. Then U85C U102G, with 0.22; and U85C U102A, with 0.18; and U85A U143A, with 0.08.

As for U85A U143C, the self-cleavage turned out to be 0.11. Then U87C A140G, with 0.13; and U87C A140U, with 0.22; and U85C C99U, with 0.07. Then U87A A94U, with 0.04; and U87A A142G, with 0.07; and U85C G125C, with 0.29. Consider U85C G125U, for which the self-cleavage was 0.11. Then U87G A136U, with 0.18; and C84U U132C, with 0.14. The value for C84G G93A was 0.08; that for U85A A121U was 0.07.

For the variant U87A U134C, the self-cleavage turned out to be 0.1. Regarding U85C A94G, the self-cleavage turned out to be 0.07. As to U85C A94U, the self-cleavage came to 0.14.

For G86U A138G, the self-cleavage stood at 0.09. Then U87G C118U, with 0.17; and G82A U130A, with 1.97; and G86A A142G, with 0.06.

Turning to G89A U100A, the self-cleavage was 0.04.

Take G83U A117U: the self-cleavage came to 1.21. Consider U87C U132A, for which the self-cleavage amounted to 0.33. In the case of G88A A124G, the self-cleavage amounted to 0.06. On to U85A U87A, for which the self-cleavage worked out at 0.07. The value for U85A U87G was 0.07. As to U85G A124G, the self-cleavage is 0.32. The value for U87A U91A was 0.12; that for G88A A121U was 0.04. The value for G89C A107G was 0.11; that for G83U A142G was 0.44; that for C84U U100C was 0.21. Then U85C C101A, with 0.12. In the case of G86A A117G, the self-cleavage came to 0.09. The value for U87A C146U was 0.09. Then G88U U115A, with 0.07; and U87C U134A, with 0.18; and U87C A121G, with 0.15. In the case of U87G A94G, the self-cleavage was determined as 0. The value for C84A U91C was 0.13. The value for G83A A107G was 0.91. Then G83A A136G, with 1.05; and C90U U96A, with 0.06; and U87A U143C, with 0.11.

In the case of G88A U115C, the self-cleavage came to 0.06. Then C90G A136U, with 0.04. The value for G83C A94G was 0.17; that for G88A U96A was 0.03; that for U87A U112A was 0.07. On to U85C A92G, for which the self-cleavage stood at 0.28. The value for G86U A129G was 0.09; that for C84A U100C was 0.14.

U85C U134C: the self-cleavage stood at 0.26. Then U85C U134A, with 0.14; and U85C U134G, with 0.14. On to U85A A107U, for which the self-cleavage was determined as 0.08. In the case of U87C A138U, the self-cleavage stood at 0.24. Turning to U87C U104C, the self-cleavage was found to be 0.22. Then U87C U104A, with 0.09; and G89U A142U, with 0.04; and G83A U91C, with 0.24.

With U85C A107G, the self-cleavage turned out to be 0.15. The value for U87G U143C was 0.18; that for U87G U143A was 0.22. Consider U85G U108C, for which the self-cleavage was determined as 0.22. Then U85G A107G, with 0.09; and U85G A107U, with 0.27; and G83A G97C, with 0.18. The value for G82C U119A was 2.14. The value for G88A U132C was 0.09; that for G86A A121U was 0.26; that for G86A C110U was 0.09. For U87A U109C, the self-cleavage came to 0.11. Take U87C A107G: the self-cleavage was 0.27. As to G82U U102C, the self-cleavage was determined as 1.45. Then U85A U132C, with 0.09; and U87A U108A, with 0.06. The value for U87A U108C was 0.11; that for G86A A92G was 0.02.

As to U85G U119A, the self-cleavage came out at 0.19. The value for G89A U96C was 0.07; that for U85C A117G was 0.15. The value for U85C A117U was 0.19; that for U85A A136U was 0.19; that for C90U G114U was 0.03.

As for G89U U109A, the self-cleavage was 0.02. For the variant G83A U130A, the self-cleavage is 0.99.

As for C90U A136G, the self-cleavage came out at 0.05.

With U85A C113U, the self-cleavage amounted to 0.06.

As to G86A U119C, the self-cleavage was found to be 0.07. Then U85C G137A, with 0.2. Then U87A U115C, with 0.09. The value for U87A U115A was 0.1; that for G88A A142G was 0.06. For the variant U85C G127U, the self-cleavage is 0.14. The value for U85C G127C was 0.24. The value for G88A U108C was 0.05; that for U87G U100C was 0.28; that for G86A U115A was 0.01. The value for C90G U134A was 0.03; that for U85A G88A was 0.23. Consider C84A C145U, for which the self-cleavage was 0.08.

Regarding C84U A136U, the self-cleavage turned out to be 0.13.

With G82U A141G, the self-cleavage came to 1.54.

In the case of U87G A124G, the self-cleavage stood at 0.31. As to U87G A124U, the self-cleavage was 0.17. The value for U87C U102C was 0.36; that for U85C U115A was 0.19; that for C84U U87C was 0.04. The value for U85A G125A was 0.04.

As for C90U A117G, the self-cleavage is 0.06. Then C90G A121U, with 0.02. Then U85C A140G, with 0.15; and G83A A121G, with 0.98.

As to U87A A129G, the self-cleavage was 0.11.

As for G82U U115C, the self-cleavage turned out to be 0.84. The value for U85G C113A was 0.14. The value for U85C U91A was 0.14; that for U87A A141U was 0.08. Then U87A A141G, with 0.06; and G89A A142G, with 0.03; and G89A U143C, with 0.03. As for C84U A121G, the self-cleavage came to 0.2. Then U85C U100A, with 0.

In the case of U85G C118U, the self-cleavage was found to be 0.14. The value for G89A U119C was 0.06; that for C84U A124G was 0.11; that for U85A U134C was 0.13. Then U85A U134A, with 0.06.

Values taken from the RNAGym collection of RNA variant scans (doi:10.7554/elife.90254).
